Experimental data taken from patent US10654939 (BEIJING MABWORKS BIOTECH, dated 2020).
Residue numbers refer to the chain shown, from its start. Like-named read-outs stand apart in the source and are kept apart here.

T1: rhesus CD40 expressed on HEK293A cells (rhesus monkey, UniProt P25942 21-277 (human entry))
T1 construct: also called HEK293A/rhesusCD40
T1 chain: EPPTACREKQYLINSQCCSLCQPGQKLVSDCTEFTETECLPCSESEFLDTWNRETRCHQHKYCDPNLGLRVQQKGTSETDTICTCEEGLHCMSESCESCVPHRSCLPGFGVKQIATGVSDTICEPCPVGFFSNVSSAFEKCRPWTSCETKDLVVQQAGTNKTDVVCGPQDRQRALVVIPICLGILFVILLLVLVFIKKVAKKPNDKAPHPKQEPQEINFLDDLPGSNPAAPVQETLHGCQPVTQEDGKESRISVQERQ

B1: chimeric 13A2 antibody (antibody, human IgG2, kappa, V domains shown)
VH: EVKLEQSGPGLVKPSQSLSLTCSVTGYSITTNYYWNWIRQFPGNKLEWMGYINYDGSNNYNPSLKNRISITRDTSKNQFFLKLNSVTTEDTATYYCARLDYWGQGTSVTVSS
VL: DIVMTQSPLSLPVSLGDQASISCRSSQSLENSNGNTFLNWFLQKPGQSPQLLIYKVSNRFSGVLDRFSGTGSGTDFTLTISRVEAEDLGVYFCLQVTHVPFTFGSGTKLEIKR
notes: Mouse variable regions with human IgG2/kappa constant regions
B2: 13A2-VH3VL2 (antibody, human IgG2, kappa, V domains shown)
VH: QVQLQESGPGLVKPSDTLSLTCAVSGYSITTNYYWNWIRQPPGNKLEWMGYINYDGSNNYNPSLKNRITISVDTSKNQFSLKLSSVTAVDTAVYYCARLDYWGQGTLVTVSS
VL: DVVLTQSPLSLPVTLGQPASISCRSSQSLENSNGNTFLNWFQQRPGQSPRLLIYKVSNRFSGVPDRFSGSGSGTDFTLKISRVEAEDVGVYYCLQVTHVPFTFGQGTKLEIKR
notes: Humanized, human IgG2/kappa
B3: 13A2-VH3VL3 (antibody, human IgG2, kappa, V domains shown)
VH: B2 VH
VL: B2 VL with Y92F, Q105S
notes: Humanized, human IgG2/kappa
B4: 7B4-VH2VL2 (antibody, V domains shown)
VH: B2 VH with N44K, K45G, N53K
VL: B2 VL
notes: Humanized, human IgG2/kappa; also called 7B4H2L2

Assays:
[1] = molecular target: T2, mouse CD40 expressed on HEK293A cells (mouse, UniProt P27512 20-289); test: FACS, HEK293A/mouseCD40 cells
T2 construct: also called HEK293A/mouseCD40
T2 sequence (P27512 20-289 limits assumed): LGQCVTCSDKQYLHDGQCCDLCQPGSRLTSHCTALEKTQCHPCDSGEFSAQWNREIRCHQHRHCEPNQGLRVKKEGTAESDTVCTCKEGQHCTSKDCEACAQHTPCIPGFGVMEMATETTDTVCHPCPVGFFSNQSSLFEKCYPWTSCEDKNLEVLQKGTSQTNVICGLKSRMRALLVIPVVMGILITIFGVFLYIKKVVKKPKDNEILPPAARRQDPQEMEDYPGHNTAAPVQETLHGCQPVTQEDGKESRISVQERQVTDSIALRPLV

[2] = molecular target: T3, CD40 ECD Truncant 5 (amino acid 21-37 & 61-193) with mFc-tag (human); test: ELISA on recombinant CD40 ECD proteins with mFc tag (Example 16); antibody concentration not given
T3 construct: Truncated CRD1; mFc-tag at the C terminus; also called CRD delta1/2/3/4
T3 sequence (chain, as listed by the source limits assumed): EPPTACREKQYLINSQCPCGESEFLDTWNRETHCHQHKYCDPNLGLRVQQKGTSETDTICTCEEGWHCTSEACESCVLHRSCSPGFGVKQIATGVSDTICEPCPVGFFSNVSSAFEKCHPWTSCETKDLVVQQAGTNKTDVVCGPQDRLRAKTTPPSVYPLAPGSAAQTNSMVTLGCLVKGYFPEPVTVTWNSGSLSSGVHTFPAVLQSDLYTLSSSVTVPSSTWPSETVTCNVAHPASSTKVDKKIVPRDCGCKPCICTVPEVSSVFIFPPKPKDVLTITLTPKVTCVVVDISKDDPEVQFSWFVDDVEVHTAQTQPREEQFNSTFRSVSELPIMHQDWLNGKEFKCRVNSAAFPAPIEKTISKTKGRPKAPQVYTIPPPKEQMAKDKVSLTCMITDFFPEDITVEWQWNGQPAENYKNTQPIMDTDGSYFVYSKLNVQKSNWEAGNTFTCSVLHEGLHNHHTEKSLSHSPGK

[3] = molecular target: Full-length CD40 ECD (amino acid 21-193, human CD40) with mFc-tag (human); test: as above
[4] = molecular target: T4, CD40 ECD Truncant 3 (amino acid 145-193) with mFc-tag (human); test: as above
T4 construct: mFc-tag at the C terminus; also called CRD4
T4 sequence (chain, as listed by the source limits assumed): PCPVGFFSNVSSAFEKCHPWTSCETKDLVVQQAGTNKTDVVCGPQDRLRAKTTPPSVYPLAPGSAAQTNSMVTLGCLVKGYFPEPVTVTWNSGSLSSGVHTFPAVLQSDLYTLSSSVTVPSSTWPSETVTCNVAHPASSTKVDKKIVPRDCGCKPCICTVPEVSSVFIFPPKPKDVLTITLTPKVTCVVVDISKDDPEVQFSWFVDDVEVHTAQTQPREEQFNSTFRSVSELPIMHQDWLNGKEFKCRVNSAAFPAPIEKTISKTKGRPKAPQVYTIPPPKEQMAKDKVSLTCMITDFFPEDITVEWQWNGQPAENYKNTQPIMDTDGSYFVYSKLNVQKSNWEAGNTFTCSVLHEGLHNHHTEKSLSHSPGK

[5] = molecular target: T5, CD40 ECD Truncant 1 (amino acid 61-193) with mFc-tag (human); test: as above
T5 construct: mFc-tag at the C terminus; also called CRD2/3/4
T5 sequence (chain, as listed by the source limits assumed): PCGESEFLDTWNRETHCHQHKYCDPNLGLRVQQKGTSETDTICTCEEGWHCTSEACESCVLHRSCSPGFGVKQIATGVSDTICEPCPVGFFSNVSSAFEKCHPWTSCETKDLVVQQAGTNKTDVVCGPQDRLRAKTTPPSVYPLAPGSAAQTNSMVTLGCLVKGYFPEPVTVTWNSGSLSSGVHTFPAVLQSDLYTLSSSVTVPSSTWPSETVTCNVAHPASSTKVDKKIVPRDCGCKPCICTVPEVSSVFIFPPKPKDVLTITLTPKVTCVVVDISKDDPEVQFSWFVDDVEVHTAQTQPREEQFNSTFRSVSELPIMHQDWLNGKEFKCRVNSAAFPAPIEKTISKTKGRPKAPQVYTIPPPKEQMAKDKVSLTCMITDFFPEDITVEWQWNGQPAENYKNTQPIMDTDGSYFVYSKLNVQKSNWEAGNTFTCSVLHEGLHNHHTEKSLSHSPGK

[6] = molecular target: T6, CD40 ECD Truncant 2 (amino acid 104-193) with mFc-tag (human); test: as above
T6 construct: mFc-tag at the C terminus; also called CRD3/4
T6 sequence (chain, as listed by the source limits assumed): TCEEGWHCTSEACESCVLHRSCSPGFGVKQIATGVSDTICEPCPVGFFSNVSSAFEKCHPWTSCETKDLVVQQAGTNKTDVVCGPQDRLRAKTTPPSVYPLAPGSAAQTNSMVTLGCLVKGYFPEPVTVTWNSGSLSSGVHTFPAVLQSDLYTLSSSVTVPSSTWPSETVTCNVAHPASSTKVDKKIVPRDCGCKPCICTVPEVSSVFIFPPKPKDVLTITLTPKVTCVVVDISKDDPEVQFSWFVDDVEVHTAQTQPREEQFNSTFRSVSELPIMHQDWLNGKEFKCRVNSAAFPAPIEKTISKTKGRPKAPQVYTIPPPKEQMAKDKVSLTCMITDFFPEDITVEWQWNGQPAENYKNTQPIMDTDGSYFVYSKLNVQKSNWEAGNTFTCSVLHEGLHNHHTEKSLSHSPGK

[7] = molecular target: T7, CD40 ECD Truncant 4 (amino acid 38-193) with mFc-tag (human); test: as above
T7 construct: Truncated CRD1; mFc-tag at the C terminus; also called CRD delta1/2/3/4
T7 sequence (chain, as listed by the source limits assumed): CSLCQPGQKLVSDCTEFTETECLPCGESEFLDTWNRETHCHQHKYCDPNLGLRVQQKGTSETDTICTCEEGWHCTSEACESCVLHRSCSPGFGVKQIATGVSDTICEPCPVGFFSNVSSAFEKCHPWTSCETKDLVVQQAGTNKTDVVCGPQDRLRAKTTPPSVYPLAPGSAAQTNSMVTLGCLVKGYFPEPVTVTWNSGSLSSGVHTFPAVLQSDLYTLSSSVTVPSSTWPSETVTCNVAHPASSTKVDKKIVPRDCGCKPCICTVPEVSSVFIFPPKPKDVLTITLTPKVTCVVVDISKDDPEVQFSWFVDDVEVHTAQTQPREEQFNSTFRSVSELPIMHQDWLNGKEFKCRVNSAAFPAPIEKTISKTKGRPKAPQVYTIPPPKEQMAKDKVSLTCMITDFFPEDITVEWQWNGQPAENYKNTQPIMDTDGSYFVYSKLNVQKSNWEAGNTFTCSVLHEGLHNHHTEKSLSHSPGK

[8] = molecular target: T8, CD40 ECD Mutant 1 (amino acid 21-193, R7A/E8A) with mFc-tag (human); test: as above
T8 construct: Signal peptide left out
T8 sequence (chain, as listed by the source limits assumed, stated change not applied): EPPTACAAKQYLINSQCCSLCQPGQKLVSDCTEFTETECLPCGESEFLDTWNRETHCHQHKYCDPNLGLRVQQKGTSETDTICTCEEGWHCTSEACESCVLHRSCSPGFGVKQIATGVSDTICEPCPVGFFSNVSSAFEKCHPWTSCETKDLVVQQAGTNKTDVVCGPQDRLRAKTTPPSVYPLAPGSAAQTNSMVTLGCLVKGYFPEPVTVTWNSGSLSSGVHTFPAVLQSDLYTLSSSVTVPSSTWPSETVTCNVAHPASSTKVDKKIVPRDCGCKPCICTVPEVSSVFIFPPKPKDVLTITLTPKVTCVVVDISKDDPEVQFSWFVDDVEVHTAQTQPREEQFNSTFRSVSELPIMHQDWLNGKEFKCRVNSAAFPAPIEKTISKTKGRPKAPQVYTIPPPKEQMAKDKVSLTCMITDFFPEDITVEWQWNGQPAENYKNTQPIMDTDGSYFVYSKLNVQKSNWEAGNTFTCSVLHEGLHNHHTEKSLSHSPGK

[9] = molecular target: T9, recombinant human CD40 (ECD)-his (human, UniProt P25942 21-193); test: SPR (Biacore 8K), hCD40(ECD)-his coupled to chip, antibody injected
T9 construct: Bought protein; also called hCD40(ECD)-his; TNFRSF5
Experimental: SPR assays were used to determine the binding affinity of the chimetic or humanized anti-CD40 antibodies to human CD40 with the BIAcore™ 8K instrument (GE Life Sciences). Briefly, 100-200 response units (RU) of human CD40 (ECD)-his protein (Sino Biological, CN, Cat #: 10774-H08H) were coupled to CM5 biosensor chips (Cat #: BR-1005-30, GE Life Sciences), followed by blocking of un-reacted groups with 1M ethanolamine. Serially diluted antibodies at concentrations ranging from […] were injected into the SPR running buffer (HBS-EP buffer, pH7.4, GE Life Sciences; US; Cat #: BR-1006-69) at 30 μL/minute. The binding capacity was calculated with the RUs of blank controls subtracted. The association rate (k_a) and dissociation rate (k_d) were calculated using the one-to-one Langmuir binding model (BIA Evaluation Software, GE Life Sciences). The equilibrium dissociation constant K_D was calculated as the k_d/k_a ratio.

[10] = molecular target: T1, rhesus CD40 expressed on HEK293A cells; test: FACS on HEK293A/rhesus CD40 cells, serially diluted antibody (Example 14, protocol of Example 5)
Experimental: Example 5 Mouse Anti-CD40 Monoclonal Antibodies Bound to Human and Rhesus CD40 Expressed on HEK293A Cells To further determine whether anti-CD40 antibodies bound to human, monkey or mouse CD40 expressed on HEK293A cells, a cell-based binding assay by FACS was performed using the HEK293A cells stably overexpressing human, monkey or mouse CD40 as generated in Example 1, respectively. Briefly, 10^5 HEK293A cells were seeded into each well of the 96-well plates and serially diluted anti-CD40 antibodies were added to the plates. After incubated at 4° C. for 1 hour, plates were washed 3 times with PBST. Then, an APC coupled Goat Anti-Mouse IgG (BioLegen, US, Cat #: 405308) diluted 500× was added to the plates. After incubation at 4° C. for 1 hour, the plates were washed with PBS for 3 times and then cell fluorescence was monitored using a FACS machine (BD).
The chimeric and humanized anti-CD40 antibodies were further characterized for their ability of binding to HEK293A/humanCD40 cells and HEK293A/rhesus CD40 cells, following the protocols described in Example 5. They were also tested for their ability to activate CD40 signaling in HEK-Blue assay, and to promote dendritic cell maturation, following the protocols in Example 7 and Example 9, respectively, the dendritic cells collected form three healthy human donors. IL-12(p40) secretion by the dendritic cells was measured by using human IL12(p40) ELISA kit (BD, US, Cat #: 551116) following themanufactor's instruction.

[11] = molecular target: T9, recombinant human CD40 (ECD)-his; test: ELISA on coated recombinant TNFRSF proteins, serially diluted antibody (Example 17)
[12] = molecular target: T9, recombinant human CD40 (ECD)-his; test: as above; remark: listed apart in the source

| Binder | binding result [1] | binding result [2] | binding result [3] | binding result [4] | binding result [5] | binding result [6] | binding result [7] | binding result [8] | Kd [9] [nM] | koff [9] [s⁻¹] | kon [9] [M⁻¹ s⁻¹] | binding result [10] | EC50 (read off the curve) [11] [µg/mL] | EC50 (read off the curve) [12] [µg/mL] | EC50 (read off the curve) [10] [µg/mL] |
| --- | --- | --- | --- | --- | --- | --- | --- | --- | --- | --- | --- | --- | --- | --- | --- |
| B1 | no binding | no binding | binds | no binding | no binding | no binding | no binding | binds | 3.58 | 0.00173 | 484000 |  |  |  |  |
| B2 |  | no binding | binds | no binding | no binding | no binding | no binding | binds | 2.93 | 0.00242 | 825000 | binds |  |  |  |
| B3 |  | no binding | binds | no binding | no binding | no binding | no binding | binds | 7.68 | 0.00459 | 598000 | binds | ~0.02 |  |  |
| B4 |  |  |  |  |  |  |  |  | 2.91 | 0.00581 | 2e+06 |  |  | ~0.02 | ~0.2 |
